26 molecules from PMC9352680, “A comprehensive thermodynamic model for RNA binding by the Saccharomyces cerevisiae Pumilio protein PUF4” can be followed below.

To fix the notation:
B1: Ib_S1_P4E.1_K4.1_C4.1_H4.1_[G2A]_A4.1_F4.1_[T8G]_T4.1 (ssRNA)
RNA: UCUCUUUAUAUAUGAUCUCUU
B2: Ic_S2_P4E.1_K4.1_C4.1_H4.1_A4.1_[A6T]_F4.1_[T8A]_[A9T]_T4.1 (ssRNA)
RNA: UUUGAUUAAUAUGAUAUCGUUCUUUCUUGUAUUUAUUUCUUUCUCGAUAUCAUAUUAAUCUUU
B3: Ic_S2_P4E.1_K4.1_C4.1_H4.1_A4.1_[T7G]_F4.1_[T8C]_[A9C]_T4.1 (ssRNA)
RNA: B2 RNA with U33A, U34G, A35C, U36C
B4: Ic_S2_P4E.1_K4.1_C4.1_H4.1_A4.1_[T7C]_F4.1_[T8G]_[A9C]_T4.1 (ssRNA)
RNA: B2 RNA with U33A, U34C, A35G, U36C
B5: Ic_S2_P4E.1_K4.1_C4.1_H4.1_A4.1_[T7C]_F4.1_[T8A]_[A9T]_T4.1 (ssRNA)
RNA: B2 RNA with U33A, U34C
B6: Ic_S2_P4E.1_K4.1_C4.1_H4.1_A4.1_[T7C]_F4.1_[T8C]_[A9C]_T4.1 (ssRNA)
RNA: B2 RNA with U33A, U34C, A35C, U36C
B7: Ic_S2_P4E.1_K4.1_C4.1_H4.1_A4.1_[T7C]_F4.1_[T8A]_[A9C]_T4.1 (ssRNA)
RNA: B2 RNA with U33A, U34C, U36C
B8: Ic_S2_P4E.1_K4.1_C4.1_H4.1_A4.1_F4.1_T4.1 (ssRNA)
RNA: B2 RNA with U33A, A35U, U36A
B9: Ic_S2_P4E.1_K4.1_C4.1_H4.1_A4.1_[T7C]_F4.1_[T8C]_[A9T]_T4.1 (ssRNA)
RNA: B2 RNA with U33A, U34C, A35C
B10: Ib_S1_P4E.1_K4.1_C4.1_H4.1_[G2A]_A4.1_F4.1_[T8C]_T4.1 (ssRNA)
RNA: UCUCUUUAUAUAUCAUCUCUU
B11: Ib_S1_P4E.1_K4.1_C4.1_H4.1_[G2T]_A4.1_F4.1_[T8A]_T4.1 (ssRNA)
RNA: UCUCUUUUUAUAUAAUCUCUU
B12: Ib_S1_P4E.1_K4.1_C4.1_H4.1_[G2A]_A4.1_F4.1_[T8A]_T4.1 (ssRNA)
RNA: UCUCUUUAUAUAUAAUCUCUU
B13: Ic_S2_P5E.1_K5.1_C5.1_H5.1_A5.1_[T6C]_[A7C]_F5.1_[T8G]_[T9C]_[A10T]_T5.1 (ssRNA)
RNA: UUUGAUUAAUAUGAUAUCGUUCUUUCUUGUAUCCGCUUUCUUUCUCGAUAUCAUAUUAAUCUUU
B14: Ic_S2_P5E.1_K5.1_C5.1_H5.1_A5.1_[T5G]_[T6C]_[A7C]_F5.1_[T9A]_[A10T]_T5.1 (ssRNA)
RNA: B13 RNA with U32G, G35U, C36A
B15: Ic_S2_P5E.1_K5.1_C5.1_H5.1_A5.1_[T5G]_F5.1_[T8A]_[T9A]_T5.1 (ssRNA)
RNA: B13 RNA with U32G, C33U, C34A, G35A, C36A, U37A
B16: Ic_S2_P5E.1_K5.1_C5.1_H5.1_A5.1_[T5C]_[T6A]_[A7T]_F5.1_[T8G]_[T9G]_[A10T]_T5.1 (ssRNA)
RNA: B13 RNA with U32C, C33A, C34U, C36G
B17: Ic_S2_P5E.1_K5.1_C5.1_H5.1_A5.1_[T5C]_[T6C]_[A7G]_F5.1_[T8A]_[T9C]_[A10C]_T5.1 (ssRNA)
RNA: B13 RNA with U32C, C34G, G35A, U37C
B18: Ic_S2_P5E.1_K5.1_C5.1_H5.1_A5.1_[T5A]_[T6C]_[A7T]_F5.1_[T8C]_[T9A]_T5.1 (ssRNA)
RNA: B13 RNA with U32A, C34U, G35C, C36A, U37A
B19: Ic_S2_P5E.1_K5.1_C5.1_H5.1_A5.1_[T5G]_[T6C]_F5.1_[T8C]_[A10G]_T5.1 (ssRNA)
RNA: B13 RNA with U32G, C34A, G35C, C36U, U37G
B20: Ic_S2_P5E.1_K5.1_C5.1_H5.1_A5.1_[T5A]_[T6C]_[A7C]_F5.1_[T9A]_[A10T]_T5.1 (ssRNA)
RNA: B13 RNA with U32A, G35U, C36A
B21: Ic_S2_P5E.1_K5.1_C5.1_H5.1_A5.1_[T5G]_[T6C]_[A7T]_F5.1_[T8C]_[A10C]_T5.1 (ssRNA)
RNA: B13 RNA with U32G, C34U, G35C, C36U, U37C
B22: Ic_S2_P5E.1_K5.1_C5.1_H5.1_A5.1_[T5C]_[T6A]_[A7T]_F5.1_[T9A]_T5.1 (ssRNA)
RNA: B13 RNA with U32C, C33A, C34U, G35U, C36A, U37A
B23: Ic_S2_P5E.1_K5.1_C5.1_H5.1_A5.1_[T5C]_[T6A]_[A7C]_F5.1_[T9G]_[A10G]_T5.1 (ssRNA)
RNA: B13 RNA with U32C, C33A, G35U, C36G, U37G
B24: Ic_S2_P5E.1_K5.1_C5.1_H5.1_A5.1_[T6G]_[A7T]_F5.1_[T8C]_[T9A]_[A10C]_T5.1 (ssRNA)
RNA: B13 RNA with C33G, C34U, G35C, C36A, U37C
B25: Ic_S2_P5E.1_K5.1_C5.1_H5.1_A5.1_F5.1_[T8C]_[T9A]_[A10T]_T5.1 (ssRNA)
RNA: B13 RNA with C33U, C34A, G35C, C36A
B26: Ic_S2_P5E.1_K5.1_C5.1_H5.1_A5.1_[T6A]_[A7G]_F5.1_[T9A]_[A10C]_T5.1 (ssRNA)
RNA: B13 RNA with C33A, C34G, G35U, C36A, U37C

Where a chain is given by its changes, count along the chain named. In names and notes the source's numbering stands.

In this series the target is T1, PUF4 RNA-binding domain (Saccharomyces cerevisiae, UniProt P25339 537-888).
T1 sequence: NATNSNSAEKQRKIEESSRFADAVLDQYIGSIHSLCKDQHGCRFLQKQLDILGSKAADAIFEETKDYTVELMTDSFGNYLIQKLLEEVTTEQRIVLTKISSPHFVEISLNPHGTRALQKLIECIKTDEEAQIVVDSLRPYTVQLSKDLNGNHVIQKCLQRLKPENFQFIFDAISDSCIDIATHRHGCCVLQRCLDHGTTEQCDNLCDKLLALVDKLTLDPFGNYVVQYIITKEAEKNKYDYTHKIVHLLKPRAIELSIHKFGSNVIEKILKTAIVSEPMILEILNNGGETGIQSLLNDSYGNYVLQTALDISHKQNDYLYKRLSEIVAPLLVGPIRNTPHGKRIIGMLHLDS
Briefly: Mg; RNA-MaP; 20 mM Na-HEPES pH 7.4, 30 mM KOAc, 0.75 mM MgCl2, 0.1% Tween-20, 5% glycerol, 0.1 mg/mL BSA, 2 mM DTT; 25 C; 0.0125-409.6 nM protein. The conditions noted are these: tags: N-His6-TEV cleaved; C-SNAP kept, Cy3B-labelled; label: tethered on chip by stalled RNA polymerase.
With B1, the Kd (usually the concentration at which binding is half-saturated) was over 2300 nM. B2 returned a Kd of 9.81 nM. Turning to B3, binding was put at a Kd of 53.8 nM. Next, B4: 55.7 nM; B5: 16.4 nM; B6: 31.3 nM. The value for B7 was 60.4 nM; that for B8 was 0.224 nM; that for B9 was 15.8 nM. Next, B10: 1060 nM.

Regarding B11, the dissociation constant Kd worked out at 2120 nM. The value for B12 was 532 nM. The value for B13 was 596 nM.

B14 returned a Kd of 4.62 nM.

As to B15, binding was characterised by a dissociation constant (Kd) of 656 nM.

For the molecule B16, the Kd was found to be 45.8 nM.

On to B17, for which the Kd was 1140 nM. Turning to B18, the Kd was 1040 nM. The value for B19 was 794 nM; that for B20 was 4.74 nM; that for B21 was 383 nM. The value for B22 was 0.373 nM. The value for B23 was 4.81 nM; that for B24 was 293 nM.

Take B25: the Kd worked out at 444 nM. For the molecule B26, the Kd came out at 2.48 nM.
